Here are results for 20 sequences from a protein production outcome set (Wang et al. 2014).

A short description of the series: label from the status in PepcDB records.

Turning to “MPGKLTATILTRNEAANIGDCIDSLAQLADEVIVLDSGSTDATRDIARARGANVIEDDGPWPGFGPQKNRALDRATGEWVLSIDADERVPPELAQEIRTAMARADADAYAIPRLSQFCGAWVHHSGWRPDHVIRLFRRGKARFSENLVHESLQVTGNVARLRTSLLHYSYTSMDQVHRKSAQYAEAGARDLTQRGKHIGALSPVLHGTWAFVRTLVLRRGFLDGGTGLAIARMNATVSYRKYRRARELASGANHRPLEHHHHHH”, the protein production result is “failed”.

Regarding “MPGSALKYRDLRDFLAQLERQGELKRITAPVSTRLEMTEIADRVLRAGGPALLFENARHNDAPADMPVLANLFGTPRRVAWGMGADDVGALRETGELLASLREPEAPKGLRDALAKVSMLKAALWDMSPKTVRSAACQEIVWEGADVELSRLPIQTCWPGDVAPLLAWGLVITRGPNARRQNLGIYRQQPLGPNKLIMRWLSHRGGALDFRDHAQAHPGKPFPITVALGADPATILGAVTPVPDTLSEYQFAGLLRGSRTEVVKALGSDLSVPASAEIVLEGHLLPADDPRAVAAVVPEGANPPPATGYEMALEGPYGDHTGYYNEQDWFPVFTVDRITMRRNPIYHSTYTGKPPDEPAVLGVALNEVFVPLLRRQLPEIVDFYLPPEGCSYRLAVVSIRKQYAGHAKRVMFGLWSVLRQFMYTKFIVVVDEDIDPRDWTEVVWAMTTRMDPVRDTVLVENAPIDYLDFASPVSGLGGKMGLDATNKWPGETSREWGTPIHMDEAVKRRVDAMWDTLGLLEHHHHHH”, the protein production entry is on record as “failed”.

As for “MPGTKQVNVGSLKVGQYVMIDGVPCEIVDISVSKPGKHGGAKARVVGIGIFEKVKKEFVAPTSSKVEVPIIDRRKGQVLAIMGDMVQIMDLQTYETLELPIPEGIEGLEPGGEVEYIEAVGQYKITRVIGGK”, the protein production result is reported as “not failed”.

For the sequence “MPHASQIVISISLFLMSMVAVAQKTIDIKKFNLVAEQVTELKKTDLVLSLKQLTTFENVLSALTVEQNLVYFKLLAEIQIEQNRYSAAKKTANEGLIIGRRLASPSILMSELLYLRGFSFESLGNIPRATKEYKKGLEVAESLHNKIQVALGLINLGAIAYLTDNYKRSLVLLNDAYNIAGQTDDEELKGTANTELGILYSLLRQGDQSMAYYQQSYKHFKKAGLLLSAHNSLHNIAITHIREKRYEQAITVFKTIIAESNKDTSSDSMFTVYSGMAWAHLKKKDSNIDAAHQYLLLAKQYLQFTEKVDYRLQFYFDEASVLYKLERFDEVLISIARIEKILVNHEDMPKRKRKGYVNIINLKAKVFYKQEKFKQAYETKSRVIALTEKLYENEDNRSIAQVRLKLEAEQADKQNEILNNQKSRYEASFNEAKLENEEQRIYLIISALLALAFAWVLVKLIQSQKKLKVALNVDKLTGTANRRRLMVKSQQAFELAKVKQYHLSLMMINIDHFKGINDSLGHSIGDEVLAKVAFIGANMVRKNDVFGRFSGGEFMVCLPKTNLKLAMETAECIRAAINEHTWQLNNIEKISVSIGVATLTDDSELISLVKRAEEQLYQAKASGKNKVCAQ”, the protein production result is “failed”.

Consider “MPHELSWGDIYFSPTLLVLFLAVTATWITVMILNKTRLSRFIAFPSLTFIAIMVGYVVAIDSFYIQF”, for which the protein production result was “failed”.

Consider “MPHFLAKLDFKPLEYPLIEGDFCFHREFLSLKNPTKSCVYASFKDRIFLLQKIRRANDFLIKSEKATPLKREVLKQALRIYSQSFEVISHNLQENSKHASGKKTLDLGTFEDFIQKNQAPILIEIGFGSGRHLIELAKNNPTKTCLGIEIHTPSIAQALKQIELLDLKNLHILQGDGRLVLESMPNHRCEKIFVHFPVPWNEKKHRRVLSEKFLNEALRVLKPRGFLELRTDDSLYFEDSLKLALKNFQCEIEIKKNAQIPVVSKYEARWNKLKKDIYDLRIYSLEWNETPFDNHAFDFSFDTITISKKSVGTILKTKKIIQEGYFVHVCNIYENKGDFLVELSMGDFDWPVRLFVLLTENQIFYLNKSPLKTLNNHKAHLLLQNILSQKGIG”, for which the protein production result is reported as “failed”.

As to “MPHGVEVEPGVAKLTTYASKQATDMGAIYVNSKGDRIVNESNVYTTFRNAILKQADKVAYLVMDERTWKKVYDLLILHDFTPEEIKSFFENKGKRPVFVKGSLESAAEQAGIVVDELVQTVKNYQGYVQDGHDHDFGRDPKYLHQFEGETFYIIEQRLEHHHHHH”, the protein production entry is listed as “not failed”.

In the case of “MPHPATMFLLLTMAVVFLSWICDIYGLKVTLPQSGEDIRVQSLLSPEGIRWWLRNAIKNFTGFAPLGMVIIAMFGLGVAQHSGFIDACIRLGVGNRKEKRKVILWVIVLGLLSNVIGDGGYIILLPIAAMLFQWVGLHPIAGIVTAYVSVACGYSANIVLSTMDPLLAHTTQEAALTLMGYQGNTEPLCNYFFMSASTVVITGIVYWVTQKWLLPNLGKYEGSVKVEAYRPLSRKERRALMVAVVVAGIYVALILWLTFSSYGILRGVNGGLMHSPFIAGILFLLSLGAGFTGMAYGFSSGRYRSDNDVIEGLTQPIKLLGVYFVIAFFAAQMFACFEYSHLDKCLAIMGADLLSSFEPAPLSALILFILFTAFINLIMVSATSKWAFMSFIFIPMFAQMGISPDVTQCAFRIGDSSTNAITPFLFYMPLVLTYMRQYDKQITYGSLLKYTWRYSLCILAAWTLLFIVWYLLKIPMGL”, the protein production result is on record as “failed”.

As for “MPHRCAAQVVAGYRSTVSLVLVEHPRPEIAQITLNRPERMNSMAFDVMVPLKEALAQVSYDNSVRVVVLTGAGRGFSPGADHKSAGVVPHVENLTRPTYALRSMELLDDVILMLRRLHQPVIAAVNGPAIGGGLCLALAADIRVASSSAYFRAAGINNGLTASELGLSYLLPRAIGSSRAFEIMLTGRDVSAEEAERIGLVSRQVPDEQLLDACYAIAARMAGFSRPGIELTKRTLWSGLDAASLEAHMQAEGLGQLFVRLLTANFEEAVAARAEQRAPVFTDDT”, the protein production result is “failed”.

In the case of “MPIGFLRSLTARHRNPVSNRRLARVLCFVAGAANAGGFLAVQQYTSHMSGIVSAIADDLVLQRYGLVVHGIGALASFLAGAGTTAILVNWARRARLRSEYAIPLLVEATLLLCFGLLGSHLNDMDWLFVPATVMLLCFMMGLQNALITKLSNAEIRTTHVTGMVTDIGIELGKLFYWNAAVRPNSRPVMADRHKLRLLTVLVGMFLVGGIVGAQAFSTLGYAATLPLAALLLIVAIIPVADDLLTRLLLRVHRADSARRARRWGARGR”, the protein production entry was “failed”.

For the sequence “MPIHIGSSIPLMVEKMLTEMVKPSKHIPQQTLNLSTLDNDPYNEVIYKACYVFKAKNVADDDNRPEALLREALSDLLGYYYPLSGSLKRQESDRKLQLSCGGDGGGVPFTVATANVELSSLKNLENIDSDTALNFLPVLHVDIDGYRPFALQVTKFECGGFILGMAMSHAMCDGYGEGHIMCALTDLAGGKKKPMVTPIWERERLVGKPEDDQPPFVPGDDTAASPYLPTDDWVTEKITIRADSIRRLKEATLKEYDFSNETITTFEVIGAYLWKSRVKALNLDRDGVTVLGLSVGIRNVVDPPLPDGYYGNAYIDMYVPLTAREVEEFTISDIVKLIKEAKRNAHDKDYLQEELANTEKIIKMNLTIKGKKDGLFCLTDWRNIGIFGSMDFGWDEPVNIVPVVPSETARTVNMFMRPSRLESDMVGGVQIVVTLPRIAMVKFKEEMEALE”, the protein production entry was “failed”.

As for “MPIITKNTDTTCQTPPLLSIICPAYNQEAFVAQALDGFLSQQTRFNYEILINDDASTDGTARIIAQYAERHPTIIRAFYQQVNQYSQGLPCVPDLFAEARGRYIAYCEADDYWTDPRKLQLQVDFLESHPDYVITYHDAVAFDENGEYGVQLQGHLRADATALELQQARRLSTLTTCFRNVFSTMPPELNIRVAPLNDMCWWSLLGAHGKGKFMADIKPAAYRLHAGGVFSMRSDKRKLHMNLQTCSSLANYYNLQGNQALYEYFLMQTVCLSLAALTPSHKLQTLWQVASNVVVNLGRRLLPTTGKAHVQ”, the protein production entry is given as “failed”.

On to “MPINTLESSPWRGSRHDFCRERLEPLLDQAGIRINGDRPWDIRVHDPAFFRRMFADASLGLGESYVDGWWDCDRIDEFICRIIRAGLADRFRSWRDAVAALQARLFNLQHAARAFHVGQRHYDIGNDLYGCMLDRRMIYSCGYWKDATTLDEAQEAKLDLVFRKIGLEPGMRVLDIGCGWGGAARFAAEKYGVEVYGVTVSAEQARYAREICQGLPVTIELKDYRDIEGHFDRAYSLGMFEHVGCKNYGTYMKLVADRLPDDGLFLLHTIGINTSDNHGNPWVDRYIFPNSMLPSIAQIGTATENRLVMEDWQNFGPDYDRTLLTWYDRFEWHWPSLRPRYGDRFYRMWRFYLLSFAGAFRARYIQLWQIVLSPKGLTRRYDAPR”, for which the protein production result is “failed”.

Consider “MPKGLMLTDLAIAGLLLIVAKVIRVHTPLLQRMYIPSAVLAGLFGLVFGPAMLDLLPWTDTFTANASLLTAALFSALGLATDVPSPKVVAQRAGSLWAFNQIASVSQWLFAAMFGLLLTTFFWPEINPGFGVTMSAGFMGGHGSASVVGDIFTGLGWEDGFTLGLTFATVGIFISISIGMLMLQFALKMGWIRSFTTFDSMDEHERKGLVKPTEQEPVMKDTMSSLSVDSFAIHAALVVVVTAFSYVAANYLSSFHDKVQIPTFVTGFLGGMLVRIVAKQTKASRYLCDGAFKHAAGISTDYLIIFGISAIKITVLAQYLAPMIVLAIGGIAFTLWLIFWVAPRIMGDDWFEKGIFSWGWLTGTVAMGIALLRIVDPKMRSKVLDDYAIAYVPGSITDIFIISLMPIAMYNGMEWQALGVGLAYIAVVLFIWRFVFKRSGQTVTDAS”, for which the protein production result is “failed”.

Consider “MPKHEFSVDMTCGGCAEAVSRVLNKLGGVKYDIDLPNKKVCIESEHSMDTLLATLKKTGKTVSYLGLE”, for which the protein production entry was “not failed”.

Regarding “MPKLPPLSLYIHIPWCVQKCPYCDFNSHAQKSDIPEQDYIYHLLQDLQADLQRFKDSIQQRKLHSIFIGGGTPSLFSAESIAYLLKEIKKQIDFEDNIEITLEANPGTVEAERFKGYVSAGIMRISMGIQSFNDDKLQRLGRIHNAAEAKSAVNLAKVSGLKSFNLDLMHGLPNQTLEEALDDLRQAIELSPPHISWYQLTIEPNTMFAYRPPKLPDDDALWDIFEQGHQLLTMAGYQQYETSAYAKAGFQCKHNLNYWRFGDYLAIGCGAHGKLTFPTGEITRFSKTKHPKGYLRGEYLYEEKNVPKIDRPFEFFMNRFRLLEAVPKQEFEDYTGLSQSAVKNQIDFAIQQNYIVENADSWQITEHGKLFLNELLELFLTEELEHHHHHH”, the protein production result is “not failed”.

Regarding “MPKPHETAVYTHGHHESVLRSHTWRTAENSAAYLLGSLRPHMRILDIGCGPGTITADLAERVPEGHVTGVDRSPEIVERARATAAARGLENTGFAVADVHALDYPDDTFCVVHAHQVLQHVGDPVRALREMRRVARPGGFIAVRDSDYGAMTWYPASSGMDDWLDLYHRVARANGGEPDAGRRLKAWALEAGFTDITATSATWTFTTPEEREWWSGLWADRTLASAYAERATEGGHATPERLRAVSAAWRDWGKHPESWFSVLHGEILCRKEA”, the protein production entry is “failed”.

For the sequence “MPKVEIAPSEIKIPDNVLKAKLGFGGAEEIPEEFRKTVNRAYEELLDAAKPVVLWRDFEVDGSLSFDDMRLTGELATKHLSGSKIITVFLATLGKKVDEKIEEYFRKGEDLLAFFIDGIASEMVEYALRKVDAELRMKRSNLEGSFRISPGYGDLPLSLNKKIAEIFKEEVDVNVIEDSYVLVPRKTITAFVGWREKNEKQT”, the protein production entry is listed as “not failed”.

In the case of “MPKVTVSIKVVPAVEDGRLHEVIDRAIEKISSWGMKYEVGPSNTTVEGEFEEIMDRVKELARYLEQFAKRFVLQLDIDYKAGGITIEEKVSKYR”, the protein production result was “not failed”.

As for “MPLIPAVPGLADRRMYVFLLLLTLGSGMSFQGWNTLYTNFAVHGAGLSGAENGLVQSIREVPGLLTFGVIPLLLLLREHRLAALAVLVTGVGVMTAGLLPTLWGVVATTLVMSFGFHYFEAVNQSLILQYFDVRTAPLVMGRLRGLAAGGNLVMGALVYVLADLFAFSTLFCIMGAFATVAGAWALTRDPSDPARPAQRRSMVLRRRYWLFYLLTILAGARRQIFTVFSVFLLVEHFGYGVREVALLFIVNNAVNWFLNPLIGRAVNRFGEQHLLTVEYSVLVLVFLGYTVTDSPLVAAFLYVVDHIFFNFAIAIRTFFQKIADPADIAPSMAMSVAINHIAAVVMPVCGGMLWMLDYRIPFYVGAGLAVASLLATQRIGAELRLQGVKPC”, the protein production result is “failed”.
